Measured values taken from patent US5723761.

What was measured:
C16:0-ACP [1] = target: C16:0-ACP
C14:0-ACP [2] = target: C14:0-ACP
C16:0-ACP [3] = target: C16:0-ACP; remark: listed apart in the source
C14:0-ACP [4] = target: C14:0-ACP; remark: listed apart in the source

elm Class II acyl-ACP thioesterase (ULM-1) (enzyme)
Fatty Acyl Composition of Transgenic Canola Seeds (mol %), 10:0 (C10:0-ACP): 3.94 mol % | Fatty Acyl Composition of Transgenic Canola Seeds (mol %), 16:0 (C16:0-ACP [1]): 20 mol %

Cuphea hookeriana Class II thioesterase CUPH-1 (cDNA clone CMT9) (enzyme)
Fatty Acyl Composition of Transgenic Canola Seeds (mol %), 16:0 (C16:0-ACP [1]): 27.6 mol % | Fatty Acyl Composition of Transgenic Canola Seeds (mol %), 14:0 (C14:0-ACP [2]): 0.98 mol % | Fatty Acids (nmol/ml), total fatty acid analysis of liquid cultures of CUPH-1 transformed K27 (fadD) (12:1-ACP): 0.3 nmol/mL | Fatty Acids (nmol/ml), total fatty acid analysis of liquid cultures of CUPH-1 transformed K27 (fadD) (16:1-ACP): 124 nmol/mL | Fatty Acids (nmol/ml), total fatty acid analysis of liquid cultures of CUPH-1 transformed K27 (fadD) (C18:1-ACP): 92.7 nmol/mL | Fatty Acids (nmol/ml), total fatty acid analysis of liquid cultures of CUPH-1 transformed K27 (fadD) (C12:0-ACP): 2 nmol/mL | Fatty Acids (nmol/ml), total fatty acid analysis of liquid cultures of CUPH-1 transformed K27 (fadD) (14:1-ACP): 1.1 nmol/mL | Fatty Acids (nmol/ml), total fatty acid analysis of liquid cultures of CUPH-1 transformed K27 (fadD) (C16:0-ACP [3]): 281 nmol/mL | Fatty Acids (nmol/ml), total fatty acid analysis of liquid cultures of CUPH-1 transformed K27 (fadD) (C14:0-ACP [4]): 225 nmol/mL
